Measured values published in PMC3260246.

Key:
Assay in all cases: membrane filtration equilibrium binding (Scatchard plot); 12.5 µM wild-type or mutant small heat shock protein incubated 1 hr at 60°C with 2–18 µM γ-crystallin in 50 mM phosphate buffer, 100 mM NaCl, pH 7.2; unbound substrate separated through a 100-kDa cut off Microcon filter; n per subunit of chaperone
[1] = biological target: Hsp27 R12A mutant (human) (UniProt P04792)
[2] = biological target: wild-type human αA-crystallin (human) (UniProt P02489)
[3] = biological target: wild-type human αB-crystallin (human) (UniProt P02511)
[4] = biological target: wild-type human Hsp27 (human) (UniProt P04792)
[5] = biological target: αB-crystallin R12A mutant (human) (UniProt P02511)
αB-crystallin R12A mutant (human), sequence (P02511 whole entry R12A): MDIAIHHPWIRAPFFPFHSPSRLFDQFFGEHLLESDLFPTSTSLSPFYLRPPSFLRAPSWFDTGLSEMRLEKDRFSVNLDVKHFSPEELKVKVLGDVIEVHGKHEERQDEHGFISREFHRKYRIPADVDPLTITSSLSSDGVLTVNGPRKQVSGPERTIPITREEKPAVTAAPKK

bovine γ-crystallin, sequence (P02526 whole entry): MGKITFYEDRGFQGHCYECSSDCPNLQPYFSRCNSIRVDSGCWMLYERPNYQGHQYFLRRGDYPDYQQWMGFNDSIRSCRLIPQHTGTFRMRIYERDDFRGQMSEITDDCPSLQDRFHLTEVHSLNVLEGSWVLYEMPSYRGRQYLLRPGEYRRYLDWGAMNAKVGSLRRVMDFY
wild-type human Hsp27 (human), sequence (P04792 whole entry): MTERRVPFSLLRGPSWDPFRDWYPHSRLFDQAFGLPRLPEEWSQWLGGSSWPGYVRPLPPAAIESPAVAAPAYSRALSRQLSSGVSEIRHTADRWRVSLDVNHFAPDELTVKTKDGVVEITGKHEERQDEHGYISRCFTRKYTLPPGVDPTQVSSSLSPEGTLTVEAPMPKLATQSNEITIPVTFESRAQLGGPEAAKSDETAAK
wild-type human αB-crystallin (human), sequence (P02511 whole entry): as the sequence (P02511 whole entry R12A) above, with A12R counted along it
Hsp27 R12A mutant (human), sequence (P04792 whole entry R12A): as the sequence (P04792 whole entry) above, with R12A counted along it
wild-type human αA-crystallin (human), sequence (P02489 whole entry): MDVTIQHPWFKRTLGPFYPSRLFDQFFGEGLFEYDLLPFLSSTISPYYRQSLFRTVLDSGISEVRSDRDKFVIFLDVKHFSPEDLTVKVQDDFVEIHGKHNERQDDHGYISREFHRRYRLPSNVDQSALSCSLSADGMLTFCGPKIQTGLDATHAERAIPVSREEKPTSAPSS

Kd [1]: 5.79 µM | stoichiometry N [1]: 2.87 | stoichiometry N [2]: 3.61 | Kd [3]: 2.84 µM | stoichiometry N [3]: 2.34 | Kd [4]: 5.91 µM | stoichiometry N [4]: 2.9 | Kd [5]: 3.24 µM | stoichiometry N [5]: 1.68
Substance: bovine γ-crystallin (from UniProt P02526 1-175) (natural protein)
